From IntAct's records for PubMed 24469399

B1: NF-kappa-B essential modulator (Mus musculus), O88522 (parent)
chain: MNKHPWKNQLSEMVQPSGGPAEDQDMLGEESSLGKPAMLHLPSEQGTPETLQRCLEENQELRDAIRQSNQMLRERCEELLHFQVSQREEKEFLMCKFQEARKLVERLSLEKLDLRSQREQALKELEQLKKCQQQMAEDKASVKAQVTSLLGELQESQSRLEAATKDRQALEGRIRAVSEQVRQLESEREVLQQQHSVQVDQLRMQNQSVEAALRMERQAASEEKRKLAQLQAAYHQLFQDYDSHIKSSKGMQLEDLRQQLQQAEEALVAKQELIDKLKEEAEQHKIVMETVPVLKAQADIYKADFQAERHAREKLVEKKEYLQEQLEQLQREFNKLKVGCHESARIEDMRKRHVETPQPPLLPAPAHHSFHLALSNQRRSPPEEPPDFCCPKCQYQAPDMDTLQIHVMECIE

Variants of: B1
Settings: with rnf31_mouse Rnf31, Q924T7
rnf31_mouse Rnf31, Q924T7, sequence (Q924T7 whole entry): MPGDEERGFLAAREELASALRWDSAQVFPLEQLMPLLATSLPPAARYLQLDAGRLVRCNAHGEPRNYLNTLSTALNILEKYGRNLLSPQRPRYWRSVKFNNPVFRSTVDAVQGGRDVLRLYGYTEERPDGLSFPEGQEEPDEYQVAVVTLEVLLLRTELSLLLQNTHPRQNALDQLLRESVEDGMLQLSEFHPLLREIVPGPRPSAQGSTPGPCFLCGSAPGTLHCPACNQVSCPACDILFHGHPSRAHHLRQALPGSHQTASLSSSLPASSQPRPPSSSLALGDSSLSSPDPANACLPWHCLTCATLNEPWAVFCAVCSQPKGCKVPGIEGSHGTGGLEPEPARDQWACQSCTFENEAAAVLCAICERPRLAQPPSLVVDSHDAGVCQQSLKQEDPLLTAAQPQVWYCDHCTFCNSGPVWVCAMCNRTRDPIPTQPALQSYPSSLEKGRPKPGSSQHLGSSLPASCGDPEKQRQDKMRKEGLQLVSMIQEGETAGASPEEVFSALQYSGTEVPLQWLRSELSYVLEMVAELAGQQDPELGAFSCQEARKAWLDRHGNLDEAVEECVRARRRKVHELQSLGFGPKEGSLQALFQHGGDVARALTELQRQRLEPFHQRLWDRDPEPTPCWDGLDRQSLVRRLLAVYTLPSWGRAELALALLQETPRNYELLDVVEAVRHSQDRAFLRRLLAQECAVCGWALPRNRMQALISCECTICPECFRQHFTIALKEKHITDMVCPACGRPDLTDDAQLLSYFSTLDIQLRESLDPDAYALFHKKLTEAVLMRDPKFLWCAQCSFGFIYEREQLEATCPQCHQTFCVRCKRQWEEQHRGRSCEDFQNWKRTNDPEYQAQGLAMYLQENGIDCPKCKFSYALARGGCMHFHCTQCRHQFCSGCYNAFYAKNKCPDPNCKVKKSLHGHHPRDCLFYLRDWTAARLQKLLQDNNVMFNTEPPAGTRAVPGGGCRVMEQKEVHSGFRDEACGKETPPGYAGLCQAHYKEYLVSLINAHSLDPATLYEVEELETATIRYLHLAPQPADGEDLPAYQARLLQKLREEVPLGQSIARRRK

Variant	effect of a mutation on the interaction
MNKHPWKNQLSEMVQPSGGPAEDQDMLGEESSLGKPAMLHLPSEQGTPETLQRCLEENQELRDAIRQSNQMLRERCEELLHFQVSQREEKEFLMCKFQEARKLVERLSLEKLDLRSQREQALKELEQLKKCQQQMAEDKASVKAQVTSLLGELQESQSRLEAATKDRQALEGRIRAVSEQVRQLESEREVLQQQHSVQVDQLRMQNQSVEAALRMERQAASEEKRKLAQLQAAYHQLFQDYDSHIKSSKGMQLEDLRQQLQQAEEALVAKAELIAKLKEEAEQHKIVMETVPVLKAQADIYKADFQAERHAREKLVEKKEYLQEQLEQLQREFNKLKVGCHESARIEDMRKRHVETPQPPLLPAPAHHSFHLALSNQRRSPPEEPPDFCCPKCQYQAPDMDTLQIHVMECIE [Q271A;D275A]	disrupting interaction

Variants of: B1
Settings: with rnf31_mouse Rnf31, Q924T7
Remark: another data set of the same source

Variant	effect of a mutation on the interaction
MNKHPWKNQLSEMVQPSGGPAEDQDMLGEESSLGKPAMLHLPSEQGTPETLQRCLEENQELRDAIRQSNQMLRERCEELLHFQVSQREEKEFLMCKFQEARKLVERLSLEKLDLRSQREQALKELEQLKKCQQQMAEDKASVKAQVTSLLGELQESQSRLEAATKDRQALEGRIRAVSEQVRQLESEREVLQQQHSVQVDQLRMQNQSVEAALRMERQAASEEKRKLAQLQAAYHQLFQDYDSHIKSSKGMQLEDLRQQLQQAEEALVAKAELIDKLKEEAEQHKIVMETVPVLKAQADIYKADFQAERHAREKLVEKKEYLQEQLEQLQREFNKLKVGCHESARIEDMRKRHVETPQPPLLPAPAHHSFHLALSNQRRSPPEEPPDFCCPKCQYQAPDMDTLQIHVMECIE [Q271A]	disrupting interaction

Variants of: B1
Settings: with rnf31_mouse Rnf31, Q924T7
Remark: another data set of the same source

Variant	effect of a mutation on the interaction
MNKHPWKNQLSEMVQPSGGPAEDQDMLGEESSLGKPAMLHLPSEQGTPETLQRCLEENQELRDAIRQSNQMLRERCEELLHFQVSQREEKEFLMCKFQEARKLVERLSLEKLDLRSQREQALKELEQLKKCQQQMAEDKASVKAQVTSLLGELQESQSRLEAATKDRQALEGRIRAVSEQVRQLESEREVLQQQHSVQVDQLRMQNQSVEAALRMERQAASEEKRKLAQLQAAYHQLFQDYDSHIKSSKGMQLEDLRQQLQQAEEALVAKQELIAKLKEEAEQHKIVMETVPVLKAQADIYKADFQAERHAREKLVEKKEYLQEQLEQLQREFNKLKVGCHESARIEDMRKRHVETPQPPLLPAPAHHSFHLALSNQRRSPPEEPPDFCCPKCQYQAPDMDTLQIHVMECIE [D275A]	disrupting interaction
